The source of these data is PMC5292665, “Structural evidence for Arabidopsis glutathione transferase AtGSTF2 functioning as a transporter of small organic ligands” (FEBS Open Bio, 2016).

This data set concerns the molecule itself. The experiment in a line: crystal structure; AtGSTF2 (10 mg/mL) co-crystallised with small-molecule ligands 1-4 (5 or 10 mM); four structures at 2.00-2.77 Å; dimers in the asymmetric unit.

B1: Arabidopsis thaliana phi class glutathione transferase AtGSTF2 (enzyme)
chain: MAGIKVFGHPASIATRRVLIALHEKNLDFELVHVELKDGEHKKEPFLSRNPFGQVPAFEDGDLKLFESRAITQYIAHRYENQGTNLLQTDSKNISQYAIMAIGMQVEDHQFDPVASKLAFEQIFKSIYGLTTDEAVVAEEEAKLAKVLDVYEARLKEFKYLAGETFTLTDLHHIPAIQYLLGTPTKKLFTERPRVNEWVAEITKRPASEKVQ
notes: AtGSTF2, phi class glutathione transferase of Arabidopsis thaliana; no tag is named, and the protein was purified on GSH sepharose; also called phi class GST; source: E. coli Tuner (DE3) with pRARE, purified (GSH sepharose 4B, S75 Superdex gel filtration)
For orientation: stoichiometry N means a count of units in the complex or per binding partner. In the case of B1, the “stoichiometry N” value worked out at 2.
